Test results as given in US20190037818.

Columns and labels:
Test in all cases: cell_activity
Conditions in all cases: Cel-1 assay; activity of the TALEN pair
[1] = test system: XTN TALEN 2 right monomer
XTN TALEN 3 left monomer = test system: XTN TALEN 3 left monomer
[2] = test system: XTN TALEN 1 right monomer
XTN TALEN 1 left monomer = test system: XTN TALEN 1 left monomer
[3] = test system: XTN TALEN 3 right monomer
XTN TALEN 2 left monomer = test system: XTN TALEN 2 left monomer

Q: Which activity [1] does the source give for “TGCAGTATGCGGACCTTTATCTATGGCTGGAATTTCCTAAGTGCAGGGA (double strand) [TALEN 2 target, right half-site]” here?
A: 9%

Q: Which activity (XTN TALEN 3 left monomer) does the source give for “TCTGCCAACCTCACATACAGTATGTGGTTTAGTCATTGAGCAAATGCA (double strand) [TALEN 3 target, left half-site]” here?
A: 3%

Q: For “TATGCGGACCTTTATCTATGGCTGGAATTTCCTAAGTGCAGGGAGCCACA (double strand) [TALEN 1 target, right half-site]”, which activity [2] is on record?
A: 5%

Q: For “TATGCGGACCTTTATCTATGGCTGGAATTTCCTAAGTGCAGGGAGCCACA (double strand) [TALEN 1 target, left half-site]”, which activity (XTN TALEN 1 left monomer) is on record?
A: 5%

Q: For “TCTGCCAACCTCACATACAGTATGTGGTTTAGTCATTGAGCAAATGCA (double strand) [TALEN 3 target, right half-site]”, which activity [3] is on record?
A: 3%

Q: For “TGCAGTATGCGGACCTTTATCTATGGCTGGAATTTCCTAAGTGCAGGGA (double strand) [TALEN 2 target, left half-site]”, which activity (XTN TALEN 2 left monomer) is on record?
A: 9%
